Experimental data taken from US20250152729A1 (CANCER RESEARCH TECHNOLOGY, published 2025).

Molecular target: T1, recombinant human SEMA4A AviHis10, biotinylated (human, UniProt Q9H3S1 33-683, biotin on the Avi tag (BirA))
T1 construct: The text says amino acids 33-683 of Q9H3S1 with C-terminal Avi tag and His10 tag; also called avi-SEMA4A-His10
T1 sequence: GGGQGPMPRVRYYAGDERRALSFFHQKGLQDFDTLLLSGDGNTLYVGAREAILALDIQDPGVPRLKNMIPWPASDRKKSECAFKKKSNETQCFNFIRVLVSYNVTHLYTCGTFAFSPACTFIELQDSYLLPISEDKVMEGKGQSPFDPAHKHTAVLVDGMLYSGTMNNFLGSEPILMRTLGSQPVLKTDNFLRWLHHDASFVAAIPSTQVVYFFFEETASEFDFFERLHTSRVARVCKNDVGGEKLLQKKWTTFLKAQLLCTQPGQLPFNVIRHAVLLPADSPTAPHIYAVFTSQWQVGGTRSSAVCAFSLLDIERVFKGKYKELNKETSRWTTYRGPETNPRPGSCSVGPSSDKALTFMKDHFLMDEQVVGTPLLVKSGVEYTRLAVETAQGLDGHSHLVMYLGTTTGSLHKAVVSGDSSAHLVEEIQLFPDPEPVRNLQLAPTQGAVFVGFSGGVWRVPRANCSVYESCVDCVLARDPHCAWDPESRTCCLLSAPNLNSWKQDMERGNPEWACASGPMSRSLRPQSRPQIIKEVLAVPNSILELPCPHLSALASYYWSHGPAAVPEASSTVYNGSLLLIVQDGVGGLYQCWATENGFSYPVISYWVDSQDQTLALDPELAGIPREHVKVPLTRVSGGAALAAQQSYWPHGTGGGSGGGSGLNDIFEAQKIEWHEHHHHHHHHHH
Assay: BLI (OctetRED), biotinylated SEMA4A on streptavidin tip, IgG as analyte, 1:1 model; KD(observed) IgG; human SEMA4A; IgG, not Fab
Procedure: An Octet Kinetics buffer (PBS containing 0.01% (v/v) BSA and 0.002% (v/v) Tween20) is typically used as the diluent buffer for the analyte samples and as the flow buffer during the dissociation phase. The experimental data is recorded as shift in interference pattern (nm) over time, which is directly proportional to the optical thickness at the biosensor tip, which in turn is an approximate measure of the mass of analyte bound. The proprietary Octet Data Analysis software package can then be used to process data and fit binding models to the data sets. Returned association (ka, M-1 s-1) and dissociation (kd, s-1) rate constants allow calculation of dissociation (KD, M) affinity constants.
The affinity of binding between the analytes (humanised and phage display derived IgGs as human Alya IgG1s and Fabs) and human SEMA4A and cynomolgus SEMA4A, was estimated using assays in which the biotinylated SEMA4A antigen was captured on a streptavidin sensor tip. A fresh sensor tip was used for each measurement and no regeneration was used. A series of dilutions of the lead Fabs and human Alya IgG1s (3.25-240 nM) were individually placed in contact with the ligand surface for a sufficient amount of time to observe sensorgrams that could be fitted to an appropriate binding model with confidence (typically 5 minutes), followed by an appropriate length of dissociation time (typically 10 minutes). […]

B1: mouse 5E3 expressed as human IgG1 Alya (antibody, V domains shown)
VH: QVQLQQPGAELVMPGASVKMSCKASGYTFTDYWMHWVKQRPGQGLEWIGAIDTSDSYTSYNQKFKGKATLTVDESSSTAYMQLSSLTSEDSAVYYCARDYGNFYYYAMDYWGQGTSVTVSS
VL: QAVVTQESALTTSPGETVTLTCRSSTGAVTTSNYANWVQEKPDHLFTGLIGGTNNRAPGVPARFSGSLIGDKAALTITGAQTEDEAIYFCALWYSNHWVFGGGTKLTVL
notes: Mouse variable domains on human IgG1 Alya constant (pEU1.22; 239iCys and S442C, EU numbering); purified, unconjugated; also called 5E3 IgG1 Alya
For B1, the Kd was at most 1 nM.
